Experimental data as given in a protein production outcome set (Wang et al. 2014).

Test: label from the status in PepcDB records

Sequence	protein production
MNAPLLTQDTKRTLAWIAVAVAFLALLKLLAPTLTPFVFAGILSYILHPGVEWLQRHRVPRVLGVFLMILLLTVVAVALMLLILAVLQREIPAIREQLPGMLSKLNAAVTPRLAEMGVHVRFDFPGLRKLLTEQLAASPEDVMSTALNYLRVSGSAAVQVLGIVFLVPIVMFYLLMDWNMLIRRLEGAVPRRWISKTRELAAETDGLLSQYLRGQIIVMLVLAAYYSAGLALAGFDVALPIGIFTGLAVFIPYIGFGIGLILAILSALLQFGNLYGLLAVAVVYGVGQVLEGFYLTPRLVGERIGLHPLAVILALLAFGQLFGFFGILLALPISAVLLVGLRQIRQLYLGSKLYRD	failed
MGRVIVLGEVLLVGLRFVFVLLIYIFVWHVLRLMYLELGLAPAQSSRKRPVLVVLDAKNGGAKRGESYPLGENISIGRDNHNDIIINDSHVSARHAVITRQGREWKILDLDSTNGTYVNGLRLTGPHSLRPGDKISIGGVTFKVGWEDASRSPFPYRTGAAR	failed
MPFRTPNIANMTDKKFLPQLDENLPTDVFFHYFFLEAKTETLSHSHPWGQLHLIKQGRLEMEVDKQKMFCPANYAIWTPAHLLHRAFNHNDVEYCAINIEFELSQKLPTSACMFPLTPLLRAIVDDLVERQTTEVLSTEDKYLSHVLIERLSKTNPIENYLPFTDDKLLAPILMQLQENPADDSSLEIWAKRVFSTERTLARRFQKELKMSFNDWRQRAKLAKAMVLLKDAISINEIAYQLGYSQGSSFIKMFRKHTGVTPEQFRKEQQGK	failed
MWPLISNELYKIIKKKKFWITFIVFFALFLAYSIVQYSSEKKYYEPKQRIAMDKLEIKTEKKQLNSPGINAEQKKKIKQYIKQDEKDIKDKKKEDASKDLDWHLRLNKELIQKKYEYIKDKGKGKNEDTEDASISVMKDEYYRDNNLNPYDKTGDLAMDSFLSSKAFMQILVVFIIIAVATSDIVSSEYSPATIKMLLAKPASRAKILFSKFIAILVGNIFIIGIPQVITYLILSFMNGFPNLSQPIAVGRMYQYDSSVILSNHNVGVSPILGSSYLITEGKYLLYLALLDLLFILGCVSICFLISVLIKNSAITIGINVGLGVVMSIIGLMTLEGAIPKALSAITPFLIMTYSSTDVLLMGDMAKRANNPGITVGMGIVVFIVYTVVCMGISTFVFSKKDMLA	failed
MDLSVVVPTLNARDALLDALDALAAHAPAAEVVVANGPSVDGTSGTVRDHDAVDTLLELSERNLNAARNAGIAATNGTVVAFIGQDTHIQPGWTNAVADAIADGADAVTGPVHRTVEGGVTTESVDEATVSGRDVTFFDGANVAITRRALRALDGFDEALQTGAARDAAHRLAGMDRRVAWAPNACVLRTDADDVIHRLPEDADSSARGLKYRALAYRLTKNYGATAAITARVLRHAVGDAASVGGAVLRGDADLSTWVGAGLAVLPGLWRGSQAGLSARVADRTTTRNPNGVSTRMDRVHARHD	failed
MMNRNLVVALAGNPNCGKTSLFNELTGSKQHVGNWPGVTVEKKEGKLKFEGREITIVDLPGTYSLGAYSEDEVVARDFILKDKPDVVINVVDACNLERNLYLTTQILETGAKVVLALNMMDEANTRNIDINIEKLQKSIGIPVVPTVATKKQGIKELVKNAIKLGDSESEELYTIDYGSDIQKEVDGIKAAIDEASVTLEYPKAWVSLKLLENDDYIRKYIDNSIKDDEVKHKVSEGIENLTSIIGYEPDAFIVDKRYELISKFVKNSVKKNEVQEESTSDKIDKVLTNKFLGIPIFAIIMFAVYQVSINFGNGTLSDLINDSLGQLGTNIAFTLDGFGVPKIIGAFVRDGVFAGVGSVLGFFPMILIMFFLISLLEDSGYMARAAYVMDRLMSAVGLHGKTAVSLIVGSGCNVAGIMSARTLESKKDRMIAILITPFISCPARLTVYGVFVGAFFAKQKLGIFSLGGIIIFLLYALGIFVAICAGKFFSSKVFEGETSYFVMELPPYRLPTLKGILIHMWEKSGHFLKKAGTIILGVCIIVWILADLPAGVEYGSKDSLLGIIGTFIAPIFKPAGFGSWQAGVALITGFAAKEAVVGTLGTIYGVNEGTQLFHAIHNTFTPLSAISFMIMTLLYVPCVATIGAVKSETNSNKWTVAVIIYTCVIGWVLATIFYQVGRLLGYV	failed
MRRSLRHGFTALLTTWALLLPTVAVAQEPIDNVPEVTADNAETLEDIIDDALTPTTRLEAPNTDLCPYKESPSPARSTSEVVAPGAQTPALVPVPSVPAGGEKLATCGVITPNGFELPEDSDETITASAWMVFDIDSGEIIAAKDPHGRYRPASIIKVLLSLVAIDELNPTTVVTGTMEAANIEGSRVGVGEGGQYTVDQLLHGLLLASGNDAAYLLAQELGGDQATLEKVNALAKELGTQDTFVATYSGLDAPGMSTSAYDMSLIYQHAWQNPVFESIISTDHIDFPGWGDNEGFQVWNDNALFMNDPDGIGGKTGYTDDANHTFVGGLDRGGRRLAAVLLDSTVSDIRPWEQARLLIDASLPITPGSGVGQLGSGSANDVAPATPELPEPTDNLTSGEGGSQNTLLKLVVPIGIIVLLLIAALAWTFRSPKKKN	failed
MALAEDDGFYMGVGYQIGGAQQNIDNKGSTLRNNVINNFRQVGVGMAGGNGLLALATNTTMDALLGIGNQIVNTNTTVSNNNAELTQFKKILPQIEQRFETNKNAYSVQALQVYLSNVLYNLVNNSNNGSNNGVVPEYVGIIKVLYGSQNEFSLLATESVVLLNALTRVNLDSNSVFLKGLLAQMQLFNDTSSAKLGQIAENLKNGGAGSMLQKDVKTISDRIATYQENLKQLGGMLKNYDEPYLPQFGPGTSSQHGVINGFGIQVGYKQFFGNKRNIGLRYYAFFDYGFTQLGSLSSAVKANIFTYGAGTDFLWNIFRRVFSDQSLNVGVFGGIQIAGNTWDSSLRGQIENSFKEYPTPTNFQFLFNLGLRAHFASTMHRRFLSASQSIQHGMEFGVKIPAINQRYLRANGADVDYRRLYAFYINYTIGF	failed
MKLILAPMEGLTDPIMRDVLTHVGSFDWCVTEFIRVTDSVLPDHVYYTYCPELKNNGKTAAGTPVHVQFLGNNPDMLAANAEKVVALGAPAIDLNFGCPAKTVNRHRGGSILLDEPDVVHLLVKAVRDAVPAHIPVSAKMRLGYLDENHTMDNAYAIQEAGANWLTVHARTKADGYTPPAYWEKIQPIKDALSINVIANGEIWTNQDAKACQQQSGCEDLMIGRGAVTTPDLTLCIRQNVDEALMNWAALIELQQRFLNGEYKTEIGMIGRYKQWLGMMTKAYPEAKQLWDEIKRIKNLDEILLKLGRSS	failed
MKFVKASLYLSIALAISACGEQVSVESHLENAKSYLNENKVNESIIELKNAIRADTKNAEARFLLGQIYLSLGDGLAAVKELERAQSLKYPDNKVLPLLARAYILTDSDSDVIALSTAAKGLAAEERSQYLAYQTLAALRSEQPDLAKQSVELAQSIAQQSLYSMLASAYLQLSENKYDEVKTLISRILTIEAKQVDALMLQGQVAMVTEEYQLAVDSFKQYMELQPRFSMVELLLANALLKAGHDEEAEQHADAILAKVNNQPFANYIKAMVRFQAKDFDKASEHAEAALSADFNQFNLKLVAGASAFYLKNWQQSYHHLSAIVKYLPNDHQARRMLAVTQLELGLIDEISATIGDFDGNDEVNSQFLSSLSYKLLELGATTEAKKLLAQNGQNSSKNAAHNARQGILKLMMNDPSGIENLQDAVKLNPELIEAELAIAFSALQRGDIAKANAIAEKWQKQYPDKASSFNLLASIAIKEGKYDKAEQALKKSLSLEQDNFFALTEQLRIARKQENIPLSKQRADYLITIAPTNNKVLRQYFGVYRNEMALAKLTAAYELDKTDINKAILLSEAMVSLGQLKQAESILVSIADTAKLPKRYWQLLLLTYKKQKNFEKIRPTLEKWLKENPYHIEAVVLLTDFYASQRNYERALTVIKRGLDNHKDNLVLQLVQMQLLLNNKQISPAKSLYKIIENKNINDALKQGLLGRIYLLEEDYVQALPKLTVFYQTYPSSQNAIYLAGAHLGNKDNAKAVKVLEHYLTIDANNNRIETMLAGIYLENDSDKAIAVYDDVVKKQPKNVVAHNNLAWLYLEQDNISKALEHAEKALELAPQIANIVDTYAKVLLGSGDKRAALQYASKASEIAKGKDVDIQLNYVEALIANNRINEAKDLLAKVATATDEQKNKKSKLLAQL	failed
MEDEPGSENEADTIVASPLAKWRIEFSKSFQNYLDRSAPNIVRRWLVTLVAAVIYIYRVYSVYGYFVISYGLATYILNLLIGFLSPKVDPELEALDPDSLPVDESDEYKPFVRRLPEFKFWYAATKAFVVAFVMTFFSFLDVPVFWPILLCYWLVLYSLTMKRLIVHMFKYRYFPFDVRKPVKLLKFLVNSVLTFLRLKKQIQIGHHTRRTVWTRVYLLDFLDIGLANIHRVYAQLHLQQQQNIVKDIAMRDYWRDSIRQFPRKYLFITYQRFDEKSFLVSANHPKSAMEATTRILSTSSALNRLLLLSKLNLKSDPRNINSTNQLLHNAVTRKSSISAARIRCSSLPANANLFRSLFFLTSTFRLENTAVHANPFRSEPNDGVAVWNRAPRIVNGGGNAAIFGGNEGKETTVVLLGWLGAKAKHLRRYVEWYNSRGINAVTFTVDVRDLLRLDLGRRLERRIAEFGNELVNWVSEKEDDGREKCLVFHSFSNTGWLVYGALLESFIGRQDLVERIKGCIIDSGGADPLDTKVCSLFHVTKSFKCYSMVSPLLQDLVLEVEMSILL	failed
MLSVIIITKNEEANIRRCLESVHFADEIIVLDSGSTDNTLAIAREYTDKVFSTDWQGYGIQKDRALQKAQGDWVLNLDADESVSSELRQEILQAISSDTADAFRIPIQMIFYNQVLKYSGSPKRHIRLFKRENASYSKDIVHEKVLIPVNARVGKLKKPIWHHSFSDVHHVLYKLNKYSSYSAKIRIESNEKVGLVKTFFSALWMFVRCLFLQKGFLDGRAGFLFAVFGAQGAFYRGVKQIYKDRDINKLPSVNHIKEELEHHHHHH	not failed
MTETESKWDEKLKRFFKDYYWNEILQLANEYPDQRSLAVDFTDIEKFDRDLSREFLEHPGELISAAEAALKEIDLPVEKNLEQAHVRVIKIPNRIPIRELRSKHLTRFVAIEGMIRKATEVRPRITKAAFQCLRCGHLTIVEQNSFKFEEPFAGCEEETCGKKGPFKVSIEDSTFIDAQKLQIQESPENLKGGSQPQSLEVDSEDDLTGNVTPGDRVIINGVLKSRQRTLKDGKSTFYDLILEANSIERLDKDYDELEISAEEEEQILELSRDPAIYEKIISSIAPSIYGYEDIKEALALQLFSGVVKNLPDGSRTRGDIHMMLVGDPGIAKSQLLRYVVKLSPRGVFASGRSASASGLTAAAVKDDMNDGRWTIEGGALVMADMGVAAVDEMDKMRTEDKSALHEAMEQQTISIAKAGIIATLKSRCALLGAANPKYGRFDRYEGLADQINMPPALLSRFDLIFVLLDTPNHSLDSRIANHILQSHYAGELSEQRQKLPGSTISEEFVDAEMEIIEPVIAPEFMRKYIAFARKNVYPVMEEDTRHHLINFYTDLRRSGEGKNTPVPVTARQLEALVRLSEASARVRLSNIVTLEDAKRTIRIVMNCLKNVGVDPETGALDADILASGTSMSQRNKIKLLKDIIKKVSDRHPGSKAPLEEVYAEAESEHGIDRGHAEEYIKKMKQRGDILSPDQTHIRLIN	failed
MSCGKPQETYSTSSILTREQFEIQHQEEDTIGEQVIFIDGVAYNSRGFRVCGAPNQRGGFCARFGQCPFHKDKVTTFKMSEETVSEFPRQLLTESCNLLQNNERKFKNAWKLDEHHRFLVALKKFGHGNWRQIADYVETRSASQCQSHAQKYYLRKRKLASNANLKRSIFDLIDEDTLSVEIGEEDTWNIIQKCPSKEAQGSVRSRSKTLQRMSTDSSVESYPIRELSTVDSELSTLQTYKQASFFIRIFRNGVFSHGVDLELPNSLASFFIKAAQLLDMSVATKAYTRSGFEISSLHEVCPGDILWISSGEEFIFPSPVQYIET	not failed
MDMKKHGLSIGINRIESVFFVTLKAIGTLTHEDYLVITPMLEGALSQVDQPKVSLFLDATELDGWDLRAAWDDLKLGLKHKSEFERVAILGNKDWQEWAAKIGSWFIAGEIKYFEDEDDALKWLRY	not failed
